From article PMC9372576, “Interaction of the gas vesicle proteins GvpA, GvpC, GvpN, and GvpO of Halobacterium salinarum” (Frontiers in Microbiology, 2022)

T1: GvpA fragment A44-76 (Halobacterium salinarum, UniProt P08958 44-76)
T1 construct: GvpA of Halobacterium salinarum, mainly helix alpha3; vector described in earlier work; source: Hfx. volcanii WR340 transformant, split-GFP fusion in living cells
T1 chain (looked up): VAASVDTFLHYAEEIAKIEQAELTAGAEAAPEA

T2: GvpA fused to NGFP or CGFP (Halobacterium salinarum, UniProt P08958 1-76)
T2 construct: the entire GvpA of the p-vac region of Halobacterium salinarum; gvpA reading frame; NGFP (mGFP2 up to aa 157) or CGFP (from aa 158) at the N- or C-terminus through a 14 aa (pJAS) or 16 aa (pWLfdx) linker; with GvpF and its variants CGFP stood at the C-terminus of GvpA (AC); also called NA; AN; source: Hfx. volcanii WR340 transformant, split-GFP fusion in living cells
T2 sequence (looked up): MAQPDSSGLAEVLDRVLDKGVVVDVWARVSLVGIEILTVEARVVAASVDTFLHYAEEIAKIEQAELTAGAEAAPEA

B1: GvpH fused to NGFP or CGFP (natural protein, Halobacterium salinarum, UniProt P24372 1-182, looked up)
chain: MVPDENDDASDDQSSQLSGLLDQLHTLVEVLADIEEEGGHRHESGRIDRGNARIDYDYDVSIGLGRADGSSYDEEPSSNRSRSEQRSGQQRTTEDSIHVETRGGTSGDELVVVADLPGVTDDDVDVALDTDEQALTLRVDDDVVERVVLDRPDVAITDMTLRNQVLEIRLARTSDTDGGEST
notes: accessory gas vesicle protein GvpH of Halobacterium salinarum; construct of earlier work; source: Hfx. volcanii WR340 transformant, split-GFP fusion in living cells
B2: GvpM fused to NGFP or CGFP (natural protein, Halobacterium salinarum, UniProt P24377 1-84, looked up)
chain: MEPTKDETHAIVEFVDVLLRDGAVIQADVIVTVADIPLIGISLRAAIAGMTTMTEYGLFEEWDAAHRQQSEAFTTSPTADRRED
notes: accessory gas vesicle protein GvpM of Halobacterium salinarum; construct of earlier work; source: Hfx. volcanii WR340 transformant, split-GFP fusion in living cells
B3: GvpG fused to NGFP or CGFP (natural protein, Halobacterium salinarum, UniProt P24371 1-83, looked up)
chain: MFIIDDLFVSPFFSLLDILQTMALDEMYDTKSIRDDIKENQLLYEVGERSDEEYQQRKQALESQLEMAEQVQEQMRDRMEVKK
notes: accessory gas vesicle protein GvpG of Halobacterium salinarum; construct of earlier work; source: Hfx. volcanii WR340 transformant, split-GFP fusion in living cells
B4: GvpJ fused to NGFP or CGFP (natural protein, Halobacterium salinarum, UniProt P24374 1-114, looked up)
chain: MSDPKPTRSQGDLAEMLEMLLDKGVVVNADIAVSVGDTELLGIELRAAIASFETAAEYGLEFPTGTDMERVESAANISPDQSDPASETQSETESTNPLSDDSTPTASTSAEETK
notes: accessory gas vesicle protein GvpJ of Halobacterium salinarum; construct of earlier work; source: Hfx. volcanii WR340 transformant, split-GFP fusion in living cells
B5: GvpN fused to NGFP or CGFP (natural protein, Halobacterium salinarum, UniProt Q9HI16 1-347, looked up)
chain: MTNESRKRKVRGSQIRSSRGDKKQGRSQSRDDKEIERLERQNDARGQESSTHVDEGFVPEEQSFIETESVNRVESRMERWLDVGRPVHLIGPTGCGKTSLAMHVARERDRPVVWINGDAELTTSDLVGEYAEKERISEHDQFIHNVVKSKDIIRDRWVDNPLTLAVQEGATLVYNEFSRTKPVANNVLLSVFEEGVLELPGKRGKSRYVDVHPEFRTILTSNSVEYAGVHEPQDALLDRLIGIYMDFYDLDTEIEIVRAHVDKSADTNVEDIVRVLRELRERLDITVGTRAAIMANEGATTVDTVDQAVLTDICTDVLASKVAQRSDVRGLREEIESAIDDMEVALS
notes: GvpN of the p-vac region of Halobacterium salinarum; gvpN amplified from the p-vac region; GFP fragment at the N- or C-terminus, 14 or 16 aa linker; source: Hfx. volcanii WR340 transformant, split-GFP fusion in living cells
B6: GvpC fused to NGFP or CGFP (natural protein, Halobacterium salinarum, UniProt P24574 1-382, looked up)
chain: MSVTDKRDEMSTARDKFAESQQEFESYADEFAADITAKQDDVSDLVDAITDFQAEMTNTTDAFHTYGDEFAAEVDHLRADIDAQRDVIREMQDAFEAYADIFATDIADKQDIGNLLAAIEALRTEMNSTHGAFEAYADDFAADVAALRDISDLVAAIDDFQEEFIAVQDAFDNYAGDFDAEIDQLHAAIADQHDSFDATADAFAEYRDEFYRIEVEALLEAINDFQQDIGDFRAEFETTEDAFVAFARDFYGHEITAEEGAAEAEAEPVEADADVEAEAEVSPDEAGGESAGTEEEETEPAEVETAAPEVEGSPADTADEAEDTEAEEETEEEAPEDMVQCRVCGEYYQAITEPHLQTHDMTIQEYRDEYGEDVPLRPDDKT
notes: GvpC of the p-vac region of Halobacterium salinarum; gvpC amplified from the p-vac region; GFP fragment at the N- or C-terminus, 14 or 16 aa linker; source: Hfx. volcanii WR340 transformant, split-GFP fusion in living cells
B7: GvpA fragment A1-34 (domain or fragment, Halobacterium salinarum, UniProt P08958 1-34, looked up)
chain: MAQPDSSGLAEVLDRVLDKGVVVDVWARVSLVGI
notes: GvpA of Halobacterium salinarum, alpha1 plus beta-sheet 1; vector described in earlier work; source: Hfx. volcanii WR340 transformant, split-GFP fusion in living cells
B8: GvpF fused to NGFP or CGFP (natural protein, Halobacterium salinarum, UniProt Q9HI21 1-213, looked up)
chain: MTENLYTYGIIEQEDLELDVEGVAGAEQVYTVDYKTLSAVVSDIDTTDPERTDEDVEAHNNVLQEVLKHEEERTVVPMSFGMAFKSARTLKGVLRGARRALRSTLNDIEGTVELGVKILGPGDDTVPREEIQENVTDQLADLSINETENDLFTDRLIINKSYLVDFEKRDAFDSAIDDVEAEYDELTIQYTGPWPPYNFVDIHIGAEQQQGGR
notes: GvpF (wild type) of the p-vac region of Halobacterium salinarum; R213 is the very last aa; parent of the GvpF variants; also called Fwt; WT; source: Hfx. volcanii WR340 transformant, split-GFP fusion in living cells
B9: GvpA fragment A1-43 (domain or fragment, Halobacterium salinarum, UniProt P08958 1-43, looked up)
chain: MAQPDSSGLAEVLDRVLDKGVVVDVWARVSLVGIEILTVEARV
notes: GvpA of Halobacterium salinarum, alpha1-beta1-beta2; vector described in earlier work; source: Hfx. volcanii WR340 transformant, split-GFP fusion in living cells
B10: GvpA fragment A20-47 (domain or fragment, Halobacterium salinarum, UniProt P08958 20-47, looked up)
chain: GVVVDVWARVSLVGIEILTVEARVVAAS
notes: GvpA of Halobacterium salinarum, the two beta-sheets beta1-beta2; vector described in earlier work; source: Hfx. volcanii WR340 transformant, split-GFP fusion in living cells
B11: GvpK fused to NGFP or CGFP (natural protein)
chain: not shown
notes: accessory gas vesicle protein GvpK of Halobacterium salinarum; construct of earlier work; source: Hfx. volcanii WR340 transformant, split-GFP fusion in living cells
B12: GvpI fused to NGFP or CGFP (natural protein, Halobacterium salinarum, UniProt Q9HI24 1-144, looked up)
chain: MSDKQQQKHKQKARQARVKAQINRDKARRNLLRQREKLARRRTRNRKQSEPRRDDSDGDDTDGETVKNPAAHSTMPPQKSNAENAVRNSHSTVPKTPKYSDVTARERLYGQRLHQKTAGGNSEASAPSDESASGSPTEDEVNDE
notes: accessory gas vesicle protein GvpI of Halobacterium salinarum; construct of earlier work; source: Hfx. volcanii WR340 transformant, split-GFP fusion in living cells
B13: GvpC C-terminal fragment Cterm (domain or fragment, Halobacterium salinarum, UniProt P24574 329-382, looked up)
chain: ETEEEAPEDMVQCRVCGEYYQAITEPHLQTHDMTIQEYRDEYGEDVPLRPDDKT
notes: GvpC of Halobacterium salinarum, aa 329-382, the globular C-terminal domain with a zinc-finger motif; GFP fragment at the N- or C-terminus; source: Hfx. volcanii WR340 transformant, split-GFP fusion in living cells
B14: GvpL fused to NGFP or CGFP (natural protein, Halobacterium salinarum, UniProt Q9HI27 1-281, looked up)
chain: MTDHRPSPEEEQTTANEERTVSNGRYLYCVVDTTSSESATLSTTGVDDNPVYVVEADGVGAVVHDCETVYETEDLEQVKRWLVTHQQVVDAASDAFGTPLPMRFDTVLEGGDASIERWLEDHYEGFRDELASFAGVWEYRINLLWDSAPFEETIADRDDRLRELRQRQQQSGAGKKFLLEKQSDQRLQELKRERRTELADQLKEAITPVVNDLTEQDTNTPLQDEHSSIEKEQIVRFAVLADEDDETALGDRLDTIVEHEGVEIRFTGPWPPYTFAPDIGK
notes: accessory gas vesicle protein GvpL of Halobacterium salinarum; construct of earlier work; source: Hfx. volcanii WR340 transformant, split-GFP fusion in living cells

Key:
Experiment in all cases: split reporter (BiFC, NanoBiT); split-GFP (NGFP and CGFP of salt-stable mGFP2) in Hfx. volcanii transformants, 24 h 37 °C then 24 h 30 °C; relative fluorescence (rf) against the wild type; the highest of eight tag combinations is given
[1] = molecular target: B6; settings: partners not purified
[2] = molecular target: B13; settings: partners not purified
[3] = molecular target: B5; settings: partners not purified
[4] = molecular target: the molecule itself
GvpA fragment A44-76 = molecular target: T1, GvpA fragment A44-76; settings: partners not purified
GvpA fragment A20-47 = molecular target: B10; settings: partners not purified
GvpA fragment A1-43 = molecular target: B9; settings: partners not purified
[5] = molecular target: T2, GvpA fused to NGFP or CGFP; settings: partners not purified

Binder: B1
- relative fluorescence (rf) [1]: > 7.5 LAU/mm^2
- relative fluorescence (rf) [2]: 42.6 LAU/mm^2
- relative fluorescence (rf) [3]: < 5 LAU/mm^2

Binder: B2
- relative fluorescence (rf) [3]: < 5 LAU/mm^2

Binder: B3
- relative fluorescence (rf) [3]: < 5 LAU/mm^2

Binder: B4
- relative fluorescence (rf) [3]: < 5 LAU/mm^2

Binder: B5
- relative fluorescence (rf) [4]: > 10 LAU/mm^2

Binder: B6
- relative fluorescence (rf) [4]: 14.5 LAU/mm^2

Binder: B7
- relative fluorescence (rf) (GvpA fragment A44-76): ≤ 0.48 LAU/mm^2
- relative fluorescence (rf) (GvpA fragment A20-47): ≤ 0.48 LAU/mm^2
- relative fluorescence (rf) (GvpA fragment A1-43): ≤ 0.48 LAU/mm^2

Binder: B8
- relative fluorescence (rf) [1]: > 7.5 LAU/mm^2
- relative fluorescence (rf) [5]: 18 LAU/mm^2
- relative fluorescence (rf) [2]: > 18 LAU/mm^2
- relative fluorescence (rf) [3]: < 5 LAU/mm^2

Binder: B9
- relative fluorescence (rf) (GvpA fragment A44-76): ≤ 0.48 LAU/mm^2
- relative fluorescence (rf) (GvpA fragment A20-47): ≤ 0.48 LAU/mm^2

Binder: B10
- relative fluorescence (rf) (GvpA fragment A44-76): ≤ 0.48 LAU/mm^2

Binder: B11
- relative fluorescence (rf) [3]: < 5 LAU/mm^2

Binder: B12
- relative fluorescence (rf) [1]: > 7.5 LAU/mm^2
- relative fluorescence (rf) [2]: > 18 LAU/mm^2
- relative fluorescence (rf) [3]: < 5 LAU/mm^2

Binder: B13
- relative fluorescence (rf) [4]: 20.7 LAU/mm^2
- relative fluorescence (rf) [5]: < 2.5 LAU/mm^2

Binder: B14
- relative fluorescence (rf) [1]: 28.6 LAU/mm^2
- relative fluorescence (rf) [2]: > 18 LAU/mm^2
- relative fluorescence (rf) [3]: 16.9 LAU/mm^2
